Residue numbers refer to the chain shown, from its start. Names may count otherwise.
B1: P1AE0400, humanized anti-CD40 antibody VH2a/VL2a, huIgG1_LALA_PG (antibody, V domains shown)
VH: EVQLLESGGGLVQPGGSLRLSCAASGYSFTGYYIHWVRQAPGKGLEWVGRVIPNAGGTSYNQKFKGRFTISVDNSKNTAYLQMNSLRAEDTAVYYCAREGIYWWGQGTTVTVSS
VL: DIQMTQSPSSLSASVGDRVTITCRSSQSLVHSNGNTFLHWYQQKPGKAPKLLIYTVSNRFSGVPSRFSGSGSGTDFTLTISSLQPEDFATYFCSQTTHVPWTFGGGTKVEIKR
notes: also called VL2a/VH2a
B2: P1AE0404, humanized anti-CD40 antibody VH2a/VL2b, huIgG1_LALA_PG (antibody, V domains shown)
VH: B1 VH
VL: DIQMTQSPSSLSASVGDRVTITCRSSQSLVHSNGNTFLHWYQQKPGQSPKLLIYTVSNRFSGVPSRFSGSGSGTDFTLTISSLQPEDFATYFCSQTTHVPWTFGGGTKVEIK
notes: huIgG1 with effector silent Fc (P329G, L234A, L235A); also called VL2b/VH2a
B3: P1AE0402, humanized anti-CD40 antibody VH2c/VL2a, huIgG1_LALA_PG (antibody, V domains shown)
VH: B1 VH with Q106H
VL: B2 VL with Q47K, S48A
notes: huIgG1 with effector silent Fc (P329G, L234A, L235A); also called VL2a/VH2c
B4: P1AE0406, humanized anti-CD40 antibody VH2c/VL2b, huIgG1_LALA_PG (antibody, V domains shown)
VH: B1 VH with Q106H
VL: B2 VL
notes: huIgG1 with effector silent Fc (P329G, L234A, L235A); also called VL2b/VH2c
B5: P1AE0407, humanized anti-CD40 antibody VH2d/VL2b, huIgG1_LALA_PG (antibody, V domains shown)
VH: B1 VH with N61G, Q62D, K63S, F64V
VL: B2 VL
notes: huIgG1 with effector silent Fc (P329G, L234A, L235A); also called VL2b/VH2d
B6: P1AE0401, humanized anti-CD40 antibody VH2b/VL2a, huIgG1_LALA_PG (antibody, V domains shown)
VH: B1 VH with G44S
VL: B2 VL with Q47K, S48A
notes: huIgG1 with effector silent Fc (P329G, L234A, L235A); also called VL2a/VH2b
B7: P1AE0405, humanized anti-CD40 antibody VH2b/VL2b, huIgG1_LALA_PG (antibody, V domains shown)
VH: B1 VH with G44S
VL: B2 VL
notes: huIgG1 with effector silent Fc (P329G, L234A, L235A); also called VL2b/VH2b
B8: P1AE0403, humanized anti-CD40 antibody VH2d/VL2a, huIgG1_LALA_PG (antibody, V domains shown)
VH: B1 VH with N61G, Q62D, K63S, F64V
VL: B1 VL
notes: also called VL2a/VH2d
B9: P1AE0817, humanized anti-CD40 antibody VH1a/VL1a, huIgG1_LALA_PG (antibody, V domains shown)
VH: QVQLVQSGAEVKKPGASVKVSCKASGYSFTGYYIHWVRQAPGQSLEWMGRVIPNAGGTSYNQKFKGRVTLTVDKSISTAYMELSRLRSDDTAVYYCAREGIYWWGQGTTVTVSS
VL: DIVMTQTPLSLSVTPGQPASISCRSSQSLVHSNGNTFLHWYLQKPGQSPQLLIYTVSNRFSGVPDRFSGSGSGTDFTLKISRVEAEDVGVYFCSQTTHVPWTFGGGTKVEIKR
B10: P1AE0993, humanized anti-CD40 antibody VH1a/VL1c, huIgG1_LALA_PG (antibody, V domains shown)
VH: B9 VH
VL: DVVVTQTPLSLSVTPGQPASISCRSSQSLVHSNGNTFLHWYLQKPGQSPQLLIYTVSNRFSGVPDRFSGSGSGTDFTLKISRVEAEDVGVYFCSQTTHVPWTFGGGTKVEIK
notes: huIgG1 with effector silent Fc (P329G, L234A, L235A)
B11: P1AE1007, humanized anti-CD40 antibody VH1d/VL1b, huIgG1_LALA_PG (antibody, V domains shown)
VH: B9 VH with T71S
VL: B10 VL with V2I
notes: as for B10
B12: P1AE1000, humanized anti-CD40 antibody VH1d/VL1c, huIgG1_LALA_PG (antibody, V domains shown)
VH: B9 VH with T71S
VL: B10 VL
notes: as for B10
B13: P1AE1003, humanized anti-CD40 antibody VH1b/VL1b, huIgG1_LALA_PG (antibody, V domains shown)
VH: B9 VH with Q43K
VL: B10 VL with V2I
notes: as for B10
B14: P1AE1002, humanized anti-CD40 antibody VH1b/VL1a, huIgG1_LALA_PG (antibody, V domains shown)
VH: B9 VH with Q43K
VL: B10 VL with V2I, V4M
notes: as for B10
B15: P1AE0819, humanized anti-CD40 antibody VH1d/VL1d, huIgG1_LALA_PG (antibody, V domains shown)
VH: B9 VH with T71S
VL: B10 VL with V109L
notes: as for B10
B16: P1AE0996, humanized anti-CD40 antibody VH1a/VL1d, huIgG1_LALA_PG (antibody, V domains shown)
VH: B9 VH
VL: B10 VL with V109L
notes: as for B10
B17: P1AE0999, humanized anti-CD40 antibody VH1d/VL1a, huIgG1_LALA_PG (antibody, V domains shown)
VH: B9 VH with T71S
VL: B10 VL with V2I, V4M
notes: as for B10
B18: P1AE1006, humanized anti-CD40 antibody VH1c/VL1b, huIgG1_LALA_PG (antibody, V domains shown)
VH: B9 VH with Q106H
VL: B10 VL with V2I
notes: as for B10
B19: P1AE0997, humanized anti-CD40 antibody VH1c/VL1a, huIgG1_LALA_PG (antibody, V domains shown)
VH: B9 VH with Q106H
VL: B10 VL with V2I, V4M
notes: as for B10
B20: P1AE1004, humanized anti-CD40 antibody VH1b/VL1c, huIgG1_LALA_PG (antibody, V domains shown)
VH: B9 VH with Q43K
VL: B10 VL
notes: as for B10
B21: P1AE1001, humanized anti-CD40 antibody VH1a/VL1b, huIgG1_LALA_PG (antibody, V domains shown)
VH: B9 VH
VL: B10 VL with V2I
notes: as for B10
B22: P1AE0818, humanized anti-CD40 antibody VH1c/VL1c, huIgG1_LALA_PG (antibody, V domains shown)
VH: B9 VH with Q106H
VL: B10 VL
notes: as for B10
B23: P1AE1005, humanized anti-CD40 antibody VH1b/VL1d, huIgG1_LALA_PG (antibody, V domains shown)
VH: B9 VH with Q43K
VL: B10 VL with V109L
notes: as for B10
B24: P1AE0998, humanized anti-CD40 antibody VH1c/VL1d, huIgG1_LALA_PG (antibody, V domains shown)
VH: B9 VH with Q106H
VL: B10 VL with V109L
notes: as for B10

What follows are binders tested against T1, human CD40 expressed on cells (human, UniProt P25942 21-277) (assay: flow cytometry, Raji cells;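 also: cell binding of antibodies to Raji cells detected by flow cytometry using an Alexa488-labelled anti-human IgG secondary antibody, primary incubation 1 h at 4 °C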).
T1 construct: also called huCD40; Raji cells
Method: CD40 positive cells (Raji cells) were detatched from the culture bottle using Trypsin and were counted using a Casy cell counter. After pelleting at 4° C., the cells were resuspended in FACS Buffer (2.5% FCS in PBS), adjusted to 2.0E+06 cells/mL, and dispensed to 96-well PP V-bottom-plates (25 μL/well=5.0E+04Zellen/well).
The CD40 specific antibodies were adjusted to 20 μg/mL in FACS buffer, resulting in a final concentration of 10 μg/mL. 20 μl were added to 25 μl cell suspension and incubated for 1 h at 4° C. The cells were then washed twice in FACS buffer. After washing, the cells were resuspended in 50 μL FACS-buffer containing secondary antibody (<huIgG>-Alexa488, c=10 μg/mL) and incubated 1 h bei 4° C. The cells were then washed twice in FACS buffer and resuspended in 70 μl/well FACS buffer for measurement using a FACS Canto (BD, Pharmingen).

| EC50 | Binder |
| --- | --- |
| 0.12 µg/mL | B1 |
| 0.11 µg/mL | B2 |
| 0.13 µg/mL | B3 |
| 0.09 µg/mL | B4 |
| 0.12 µg/mL | B5 |
| 0.13 µg/mL | B6 |
| 0.09 µg/mL | B7 |
| 0.12 µg/mL | B8 |
| 0.09 µg/mL | B9 |
| 0.13 µg/mL | B10 |
| 0.12 µg/mL | B11 |
| 0.14 µg/mL | B12 |
| 0.13 µg/mL | B13 |
| 0.13 µg/mL | B14 |
| 0.11 µg/mL | B15 |
| 0.12 µg/mL | B16 |
| 0.15 µg/mL | B17 |
| 0.14 µg/mL | B18 |
| 0.12 µg/mL | B19 |
| 0.14 µg/mL | B20 |
| 0.08 µg/mL | B21 |
| 0.14 µg/mL | B22 |
| 0.11 µg/mL | B23 |
| 0.12 µg/mL | B24 |

These binders were tested against T2, human CD40 extracellular domain with C-terminal His-AviTag (human, UniProt P25942 21-193) (assay: SPR, antibody captured, CD40 ECD analyte;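 also: biacore SPR at 25 °C in PBS-T pH 7.4, CD40 ECD analyte from 300 nM in 1:3 series, 300 s association, up to 1200 s dissociation, double-referenced, Langmuir 1:1 fit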).
T2 construct: not shown: C-terminal His-AviTag

| Kd | koff | kon | Binder |
| --- | --- | --- | --- |
| 4.2 nM | 0.00699 s⁻¹ | 1.68e+06 M⁻¹ s⁻¹ | B1 |
| 4.2 nM | 0.00693 s⁻¹ | 1.63e+06 M⁻¹ s⁻¹ | B2 |
| 4.2 nM | 0.00709 s⁻¹ | 1.67e+06 M⁻¹ s⁻¹ | B3 |
| 4.2 nM | 0.00709 s⁻¹ | 1.67e+06 M⁻¹ s⁻¹ | B4 |
| 30 nM | 0.0355 s⁻¹ | 1.19e+06 M⁻¹ s⁻¹ | B5 |
| 4.6 nM | 0.00787 s⁻¹ | 1.69e+06 M⁻¹ s⁻¹ | B6 |
| 5.1 nM | 0.00814 s⁻¹ | 1.61e+06 M⁻¹ s⁻¹ | B7 |
| 29 nM | 0.0407 s⁻¹ | 1.4e+06 M⁻¹ s⁻¹ | B8 |
| 2.5 nM | 0.00593 s⁻¹ | 2.4e+06 M⁻¹ s⁻¹ | B9 |
| 3.4 nM | 0.00898 s⁻¹ | 2.68e+06 M⁻¹ s⁻¹ | B10 |
| 2.7 nM | 0.00662 s⁻¹ | 2.5e+06 M⁻¹ s⁻¹ | B11 |
| 3.2 nM | 0.00862 s⁻¹ | 2.68e+06 M⁻¹ s⁻¹ | B12 |
| 2.5 nM | 0.00606 s⁻¹ | 2.46e+06 M⁻¹ s⁻¹ | B13 |
| 2.2 nM | 0.00557 s⁻¹ | 2.54e+06 M⁻¹ s⁻¹ | B14 |
| 3.4 nM | 0.00877 s⁻¹ | 2.59e+06 M⁻¹ s⁻¹ | B15 |
| 3.5 nM | 0.00908 s⁻¹ | 2.59e+06 M⁻¹ s⁻¹ | B16 |
| 2.4 nM | 0.00592 s⁻¹ | 2.45e+06 M⁻¹ s⁻¹ | B17 |
| 2.6 nM | 0.00651 s⁻¹ | 2.53e+06 M⁻¹ s⁻¹ | B18 |
| 2.3 nM | 0.00603 s⁻¹ | 2.59e+06 M⁻¹ s⁻¹ | B19 |
| 3 nM | 0.00795 s⁻¹ | 2.63e+06 M⁻¹ s⁻¹ | B20 |
| 2.7 nM | 0.00681 s⁻¹ | 2.56e+06 M⁻¹ s⁻¹ | B21 |
| 3.2 nM | 0.00847 s⁻¹ | 2.63e+06 M⁻¹ s⁻¹ | B22 |
| 3.2 nM | 0.00816 s⁻¹ | 2.58e+06 M⁻¹ s⁻¹ | B23 |
| 3.3 nM | 0.00896 s⁻¹ | 2.7e+06 M⁻¹ s⁻¹ | B24 |

From patent US20250320305A1 (Hoffmann-La Roche, published 2025)
